# Results from PMC314469, “Protein Interaction Networks by Proteome Peptide Scanning” (PLoS Biology, 2004).
# T1: Boi1 SH3 (BOI1_YEAST), P38041
# T1 chain: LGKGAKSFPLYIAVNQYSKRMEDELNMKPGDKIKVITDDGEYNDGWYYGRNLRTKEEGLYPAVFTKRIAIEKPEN
# T2: Boi2 SH3 (BOI2_YEAST), P39969
# T2 chain: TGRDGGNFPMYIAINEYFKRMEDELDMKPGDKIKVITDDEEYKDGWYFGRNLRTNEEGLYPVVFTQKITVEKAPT
# T3: Rvs167 SH3 (RV167_YEAST), P39743
# T3 chain: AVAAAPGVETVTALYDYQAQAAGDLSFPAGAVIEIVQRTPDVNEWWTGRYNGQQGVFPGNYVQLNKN
# T4: Yfr024 SH3 (LSB3_YEAST), P43603
# T4 chain: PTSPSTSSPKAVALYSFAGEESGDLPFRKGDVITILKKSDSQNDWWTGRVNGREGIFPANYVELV
# T5: Yhr016c SH3 (YSC84_YEAST), P32793
# T5 chain: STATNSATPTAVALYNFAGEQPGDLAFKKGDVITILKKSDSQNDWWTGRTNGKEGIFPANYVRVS
# Key:
# Assay in all cases: SPOT array
# [1] = target: T1, Boi1 SH3 (BOI1_YEAST), P38041
# [2] = target: T2, Boi2 SH3 (BOI2_YEAST), P39969
# [3] = target: T3, Rvs167 SH3 (RV167_YEAST), P39743
# [4] = target: T4, Yfr024 SH3 (LSB3_YEAST), P43603
# [5] = target: T5, Yhr016c SH3 (YSC84_YEAST), P32793
"normalised SPOT signal, Boehringer light units (BLU); mean over the file's lines of this peptide [1]","normalised SPOT signal, Boehringer light units (BLU); mean over the file's lines of this peptide [2]","normalised SPOT signal, Boehringer light units (BLU); mean over the file's lines of this peptide [3]","normalised SPOT signal, Boehringer light units (BLU); mean over the file's lines of this peptide [4]","normalised SPOT signal, Boehringer light units (BLU); mean over the file's lines of this peptide [5]",Binder
330,33.6,42,231,245,SDFPYDPFRVMRLK [YJL139C 225-238]
128,28.3,124,7450,6740,DELPSPPLRMVHID [YER152C 237-250]
120,9.7,4.1,2740,84,SNEPHLPPKWVQRS [YLR318W 152-165]
2830,23400,1380,6950,4120,ASYPLTPRRYVPED [YLR244C 90-103]
103,42.4,8.3,13.6,206,SLGPLDPLKEISDL [YLR330W 177-190]
74.5,53.1,5.3,0,42.7,AVDPENPKKLASKF [YCR023C 384-397]
98.3,37,39,605,191,AVLPIEPMKIKGTT [YNL140C 149-162]
242,101,4430,26500,13400,DDAPATPPRPLKRK [YJL194W 18-31]
1130,44.5,3860,20100,9380,ASKPSVPPRNYFSK [YIL108W 577-590]
44.6,19.1,196,20300,20300,SILPSTPTRPLSQS [YPL202C 314-327]
101,282,581,6880,690,ASMPRVPLKIVLKD [YIL078W 68-81]
63.8,115,247,124,188,DDTPSIPSKISSKS [YBL034C 1313-1326]
70.8,42.2,86.1,166,0,ATTPAIPTKSDEAE [YGR162W 364-377]
60,67.2,42.9,1140,176,SREPEVPQRLLTLI [YCR095C 250-263]
131,25.1,68.1,441,108,SILPAFPSKSSNEQ [YDR403W 216-229]
23.4,56.4,40.5,22.9,259,SNPPTDPGRIPMSE [YKR054C 2535-2548]
100,22,354,4190,314,SGFPLLPSKRGVTA [YBL095W 165-178]
123,51.1,94,634,202,SQRPGSPGRYKLVR [YER025W 174-187]
41.4,40.1,11.8,33.2,119,SDFPYDPFKVMRQN [YKR061W 225-238]
40.2,49,22.3,6960,174,SIIPPLPDKKVFQY [YJL036W 96-109]
30.5,53.7,145,1890,718,ATVPSAPYRKQIIS [YAR002W 11-24]
168,302,1180,6110,1730,ATRPSSPMRHKSIS [YAR019C 585-598]
